Where “and” joins values, the source holds several entries; their conditions need not be identical. Equal entries are not always repeated.

Data set [1] concerns peripheral blood and tissue T-cells. Briefly: Flow cytometry of T-cell subsets after HCT (Tscm, TN, TCM, TEM, Ki-67, OX40, Treg, cytokines). The class given is in vivo, Rhesus macaque. How it is done:
Longitudinal peripheral blood samples were collected before and after haematopoietic stem cell transplant and at necropsy for flow cytometric analysis of lymphocyte subsets. Lung, liver, colon spleen and lymph node (axillary and inguinal) tissues were collected at necropsy and dissociated or enzymatically digested as appropriate for subsequent analysis of lymphocyte infiltrates by flow cytometry. Samples were analysed by multicolour flow cytometry using a LSRFortessa cell analyser (BD Biosciences) using the following T lymphocyte marker probes: CD3 (APC-Cy7 label; clone SP34-2, BD Biosciences), CD4 (BV786 label; clone L200, BD Biosciences), CD8 (BUV395 label; clone RPA-T 8, BD Bioscences), CD28 (PE-Cy7 label; clone CD28.2, eBioscience), CD95 (BV605 label; clone DX2, Biolegend). Proliferating cell populations were identified using Ki-67 (FITC label, Dako). CD4^+ or CD8^+T-cell subcompartments were labelled as follows: naïve T-cells (CD28^+/CD95^−), central memory T-cells (CD28^+/CD95^+), effector memory T-cells (CD28−/CD95^+).
Blood was collected into tubes with Sodium EDTA, and then red blood cells were lysed with lysis buffer containing ammonium chloride. Remaining leukocytes were washed with FACS buffer (PBS with 2% FBS) and stained with antibody cocktail (Table 7) for 30 minutes at 4° C. After staining, cells were washed and fixed in 1× BD Stabilising Fixative. Acquisition of flow data was performed on BD LSR Fortessa cytometer. Data were analysed using FloJo. T-cells were defined as CD3^+CD14/CD20-lymphocytes.
Peripheral blood mononuclear cells were isolated at different time points by Ficoll-Paque gradient and then were stained for cell surface markers (CD3, CD4, CD8) followed by fixation/permeabilization (using BD Cytofix/Cytoperm kit) and intracellular staining for Ki-67. Ki-67 expression in NHP peripheral blood CD4^+ (FIG. 8A) and CD8^+ (FIG. 8B) was measured. T-cells before (pre-HCT) and following allogeneic HCT in recipients being untreated (No Rx) or treated with OX40L antibody. Plots show Ki-67 expression in NHP peripheral blood bulk CD4^+ (FIG. 8C) and CD8^+ (FIG. 8D) T-cells before (pre-HCT) and following allogeneic HCT in recipients treated with rapamycin and with a combination of rapamycin and anti-OX40L antibody. Statistical analysis was performed using Holm-Sidak multiple-comparison post-test. *p<0.05.
Peripheral blood mononuclear cells were isolated prior (pre-HCT) and during terminal analysis following allogeneic HCT without immunoprophylaxis (No Rx), or treatment with rapamycin, or treatment with anti-OX40L antibody, or treatment with a combination of anti-OX40L antibody and rapamycin by Ficoll-Paque gradient and then were stained for cell surface markers (CD3, CD4, CD8, CD25, CD127 and OX40) followed by fixation/permeabilization (using BioLegend FoxP3 kit) and intracellular staining for FoxP3.
Animals were kept on the indicated immunoprophylaxis regimens. Time-points with n<3 were censored. Multiple t-test with Holm-Sidak correction was performed between the groups.
Whole blood cells were stained for CD3, CD4, CD8, CD14, CD20, CD45RA and CCR7 and then analysed by FACS. T-cells were defined as CD3^+CD14^−CD20^− lymphocytes and divided into CD4^+ and CD8^+ T-cell subsets. Memory T-cells (Tmem) were defined as CD45RA- and effector Tcells (Teff) as CD45RA+CCR7^− Tcells in both CD4 and CD8 gates. Combined populations of memory+effector CD4^+(FIG. 10A) and CD8^+(FIG. 10B) T-cells were longitudinally tracked before and at different time point following allogeneic HCT in recipients treated with anti-OX40L antibody, treated with rapamycin, or with a combination of rapamycin and anti-OX40L antibody. […]
Background: A flow cytometer gives signals particle by particle.

Data set [2] is described as follows: KY1005 pharmacokinetic (PK) analysis (OX40L capture ECL, MSD). The class given is in vivo, Rhesus macaque. The settings on record: mono-prophylaxis, 10 mg/kg once weekly (FIG. 16A). How it is done:
For PK analysis, serum samples were collected 30 minutes before and 30 minutes after each infusion of KY1005 and then once weekly after the last dose was given. The KY1005 concentration was measured using an antigen (OX40L) capture electrochemiluminescence (ECL) assay on the MSD platform. In this assay, an MSD streptavidin 96-well plate is first coated with biotinylated-OX40L, followed by the addition of test samples, followed by the detection of bound KY1005 by a ruthenylated anti-human IgG (pre-adsorbed against monkey serum for added specificity).

The next data set has as its target T1, recombinant hOX40L (Homo sapiens, UniProt P23510).
T1 construct: cDNA encoding the extracellular domain of human OX40L was cloned into a pREP4 expression plasmid; isoleucine zipper (N); made in house; host or cells: FreeStyle CHO-S (transient)
Nature of the data set: Surface plasmon resonance, apparent affinity to human OX40L. The class given is binding. The settings on record: SPR, 25° C.; CNROR = Cannot resolve off-rate. How it is done:
SPR analysis was carried out using the ProteOn™ XPR36 Array System (BioRad). Anti-mouse IgG (GE Healthcare BR-1008-38) was immobilised on a GLM biosensor surface using amine coupling, the surface was then blocked using 1 M ethanolamine. Test antibodies were captured on this surface and recombinant hOX40L (human and rhesus) were used at a single concentration of 256 nM, binding sensorgrams were double referenced using a buffer injection (i.e. 0 nM) to remove baseline drift and injection artefacts. Apparent affinities for the OX40L-antibody interaction were determined using the 1:1 model inherent to the ProteOn XPR36 analysis software. The assay was run using HBS-EP (Teknova) as running buffer and carried out at 25° C.
(In SPR one partner is held on a chip, and binding of the other changes the refractive index at the surface.)

For data set [3], the system named is peripheral blood or T-cell donor chimerism. Nature of the data set: Donor chimerism in rhesus HSCT recipients (microsatellite markers). The class given is in vivo, Rhesus macaque. The settings on record: per animal. How it is done: Peripheral blood or T-cell (CD3^+/CD20−) chimerism was determined using divergent donor- and recipient-specific MHC-linked microsatellite markers, by comparing peak heights of the donor- and recipient-specific amplicons (Penedo M C et al, (2005) “Microsateliite typing of the rhesus macaque MHC region”, Imunogenetics 57:198-209).
Flow cytometrically-sorted T-cells (CD3^+/CD20−) were analysed for donor chimerism based on divergent microsatellite markers. Chimerism analysis was performed at the UC Davis veterinary genetics laboratory as previously described (Larsen et al., 2010; Kean et al., 2007).

T1 sequence (P23510 with tags, fused parts or gaps): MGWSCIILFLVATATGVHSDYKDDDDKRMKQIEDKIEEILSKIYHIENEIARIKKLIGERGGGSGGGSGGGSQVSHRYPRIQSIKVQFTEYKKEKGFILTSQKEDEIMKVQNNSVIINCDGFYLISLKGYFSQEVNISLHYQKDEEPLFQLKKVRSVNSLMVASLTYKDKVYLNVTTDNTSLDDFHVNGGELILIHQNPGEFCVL

For the molecule “KY1005: antibody used for GVHD immunoprophylaxis in NHP, measured by antigen (OX40L) capture assay; not tied to 02D10 in this part”, the “frequency of OX40^+ Treg cells” value in data set [1] (FIGS. 8O and 8O-1) is listed as “does not affect”. Also, the “relative and absolute numbers of CD4^+ TCM cells” value in data set [1] (after HCT, p<0.05) was “significant reductions”. For the same molecule, in data set [1] (after transplant (FIG. 8N)), the “CD4^+ T-cell production of IFNγ, TNFα or IL-2” value was “without affecting” and the “ability of CD4^+ T-cells to express IL17A” value was “specifically reducing their ability to express IL17A”. For the same molecule, in data set [1] (monotherapy (FIGS. 8F & 8G)), the “proliferation of CD8^+ T-cells” value was “less effect” and the “sustained CD4^+ T-cell proliferation, as measured by Ki67 expression” value is listed as “significant inhibitory impact”. The “Treg to Tconv ratio” value in data set [1] (peripheral blood after HCT (FIG. 11B)) is listed as “protected against the significant drop”. This molecule also registered a KY1005 trough in data set [2] of 107.9 ± 11.7 mg/L.

B1: 2D10 IgG4PE: fully human anti-human OX40L monoclonal antibody, human IgG4-PE; VH Seq ID No:34, VL Seq ID No:48; 2D10-1 to -4 are stable pools (antibody, V domains shown)
VH: EVQLVESGGGLVQPGGSLRLSCAASGFTFSNYAMNWVRQAPGKGLEWVSTISGSGGATRYADSVKGRFTISRDNSRNTVYLQMNSLRVEDTAVFYCTKDRLIMATVRGPYYYGMDVWGQGTTVTVSS
VL: DIQMTQSPSSLSASVGDRVTITCRASQSISSYLNWYQQKPGKAPNLLIYAASSLQSGVPSRFSGSGSETDFTLTISSLQPEDFATYYCQQSHSVSFTFGPGTKVDIK
modifications: human IgG4-PE constant regions; 02D10 - VH Amino Acid Sequence; 02D10 - VL Amino Acid Sequence
For B1, the “Apparent Affinity hOX40L (nM)” value with recombinant hOX40L is “CNROR”. Besides, in data set [3] (2D10 IgG4PE Rhesus GvHD Study), the “Peak peripheral blood donor chimerism” value was 88% and 99% (2×) and 100%. Moreover, the “Whole Blood Chimerism (%) Day 0” value in data set [3] (Day 0) is on record as 0%. Further, in data set [3] (Day 1), the “Whole Blood Chimerism (%) Day 1” value was 16.6% and 5.7% and 22.9%. The “Whole Blood Chimerism (%) Day 4” value in data set [3] (Day 4) turned out to be 6.6%. In addition, the “Whole Blood Chimerism (%) Day 5” value in data set [3] (Day 5) is 91.4% and 66.3% and 31.7% and 68.2%. In data set [3] (Day 7), the “Whole Blood Chimerism (%) Day 7” value came to 27.5%. Also, the “Whole Blood Chimerism (%) Day 8” value in data set [3] (Day 8) was 98.4% and 97.4% and 66.3% and 82.9%. For the same molecule, the “Whole Blood Chimerism (%) Day 11” value in data set [3] (Day 11) amounted to 90.4%. Moreover, the “Whole Blood Chimerism (%) Day 12” value in data set [3] (Day 12) was 98.6% and 99.5% and 82.3% and 92.1%. Also, the “Whole Blood Chimerism (%) Day 14” value in data set [3] (Day 14) came out at 81.8%. For the same molecule, the “Whole Blood Chimerism (%) Day 15” value in data set [3] (Day 15) is 99.1% and 99.4% and 88.2% and 97.5%. Moreover, the “Whole Blood Chimerism (%) Day 16” value in data set [3] (Day 16) amounted to 79.8%. Further, the “Whole Blood Chimerism (%) Day 18” value in data set [3] (Day 18) was 19.7%. Further, the “Whole Blood Chimerism (%) Day 20” value in data set [3] (Day 20) is 99.2% and 98.4%. Also, the “Whole Blood Chimerism (%) Day 21” value in data set [3] (Day 21) is recorded as 0%. In data set [3] (Day 23), the “Whole Blood Chimerism (%) Day 23” value is 98.6% and 98.8%. In data set [3] (Day 26), the “Whole Blood Chimerism (%) Day 26” value worked out at 98.7%. For the same molecule, the “Ki-67 expression on T-cells / T-cell proliferation” value in data set [1] (NHP peripheral blood after allogeneic HCT (FIG. 8)) is listed as “reverses that expression”. In addition, the “CD4^+ Tscm expansion” value in data set [1] (Rhesus macaque after allogeneic HCT (FIG. 4)) is listed as “limited CD4^+ Tscm expansion”. Besides, the “T(eff+mem) cell population” value in data set [1] (after allogeneic HCT (FIG. 10)) was “does not effectively suppress proliferation of CD8^+T(eff+mem) cells”. Moreover, the “proportion of Tscm cells compared with the sirolimus and Tac/MTX treatment” value in data set [1] (peripheral blood, post-HCT (FIG. 6a, 6b)) is listed as “sustained inhibition”.
